Legend:
[1] = mouse, in vivo, cited from earlier work
From the text: Using ^125I labelled IRAs, we tested the ability of intravenously administered IRAs to cross the blood-brain barrier (BBB) in mice. […] The BBB is a functional interface between blood and brain that allows for regulated entry of circulating substrates.

[2] = mouse, in vivo
From the text: Initial distribution studies used male and female CD-1 mice (8–10 weeks old) purchased from Charles River Laboratories (Seattle, WA). Follow-up studies performed in male and female hemizygous APP/PS1 mice and WT littermates on a C57BL/6J background (Cat 034832-JAX) were purchased from the Mutant Mouse Resource & Research Centers (MMRRC-NIH) at approximately 2 months of age.
IRA administration followed the IN protocol outlined in Rhea et al.. Mice were anesthetized with 40% urethane intraperitoneally. […] Delicate delivery with negligible force was necessary to prevent injuring the turbinates or penetrating the cribriform plate. Tips were also examined for the presence of blood to ensure no cribriform plate rupture took place. Mice remained in the supine state for a duration of at least 30 s before being placed onto the left side.
Collection of blood occurred from the right carotid artery, and the whole brain and olfactory bulbs (Olf) were removed at 5, 15, 30, and 60 min time points after IN administration. […] Radioactivity levels were calculated for the whole brain by combining the radioactivity of each brain region and dividing by the total weights. The same was done for the neocortex (Crtx) by combining radioactivity and weights for the FC, PC, and OC. […] A 50 µl aliquot of the serum was then collected for measurement of radioactivity. Radioactivity amounts for each individual brain region, olfactory bulb, and serum were measured in a Wizard2 Automatic Gamma Counter (PerkinElmer, Waltham, MA) for 30 min. ^14C-DA5-CH samples were solubilized with Solvable (Sigma), transferred to scintillation vials containing Ecoscint (National Diagnostics) and ^14C was measured in a beta counter (TriCarb 3110TR, Perkin-Elmer). Radioactivity for ^125I was measured by counts per minute (cpm) while ^14C was measured by disintegrations per minute (dpm). […]
Injected dose percentages per ml of serum (%Inj/ml) were calculated by: […]
where Inj is dose of cpm administered and cpm/ml is the amount of radioactivity in one ml of serum. […]

[3] = Stability of IRA following IN delivery (TCA acid precipitation of brain, olfactory bulb, serum) in CD-1 mice; conditions: mouse, in vivo
Description: Blood was centrifuged at 3200 xg for 10 min. Serum (50 µl) was combined with 250 µl of BSA/LR, then combined with 300 µl of 30% TCA. Tissues were homogenized in 0.6 ml of 1% BSA/LR solution using a bead beater for 30 s at 4800 rpm twice on ice. […] Equal parts supernatant (300 µl) was mixed with an equal volume of 30% TCA. Serum and brain acid precipitated samples were centrifuged at 5400 xg for 10 min. The supernatant (S) was transferred to a new tube, leaving behind the pellet (P). The final S and P fractions for serum, olfactory bulb, and whole brain were counted separately, and the percentage of radioactivity was calculated using.
%Precip = 100 x (P)/(S + P) as described.
All biological samples were corrected for processing degradation by dividing their values by this processing control (PCon) value and multiplying by 100.

[4] = in vivo; cited from earlier work
Description: IRAs are forms of these hormones modified to prolong their otherwise very short half-lives in plasma (less than 2 min).

lixisenatide: incretin receptor agonist, cited IV BBB data
Rate of crossing the BBB after IV administration [1]: slow rates

dulaglutide (BAF): dulaglutide bioactive fragment, single IRA, 3315 Da, purchased from GLPBIO (catalog # GC31520); 125I-labelled
Serum level following IN delivery [2]: highest levels
Sex difference in maximum uptake in hypothalamus [2]: females having less uptake
Rate of crossing the BBB after IV administration [1]: quickly
Rate of whole brain uptake an hour after IV administration [1]: relatively high

CC[C@H](C)[C@H](NC(=O)[C@H](Cc1ccccc1)NC(=O)[C@H](CCC(=O)O)NC(=O)[C@H](CCCCNC(=O)COCCOCCNC(=O)COCCOCCNC(=O)CC[C@H](NC(=O)CCCCCCCCCCCCCCCCC(=O)O)C(=O)O)NC(=O)[C@H](C)NC(=O)[C@H](C)NC(=O)[C@H](CCC(N)=O)NC(=O)CNC(=O)[C@H](CCC(=O)O)NC(=O)[C@H](CC(C)C)NC(=O)[C@H](Cc1ccc(O)cc1)NC(=O)[C@H](CO)NC(=O)[C@H](CO)NC(=O)[C@@H](NC(=O)[C@H](CC(=O)O)NC(=O)[C@H](CO)NC(=O)[C@@H](NC(=O)[C@H](Cc1ccccc1)NC(=O)[C@@H](NC(=O)CNC(=O)[C@H](CCC(=O)O)NC(=O)C(C)(C)NC(=O)[C@@H](N)Cc1cnc[nH]1)[C@@H](C)O)[C@@H](C)O)C(C)C)C(=O)N[C@@H](C)C(=O)N[C@@H](Cc1c[nH]c2ccccc12)C(=O)N[C@@H](CC(C)C)C(=O)N[C@H](C(=O)N[C@@H](CCCNC(=N)N)C(=O)NCC(=O)N[C@@H](CCCNC(=N)N)C(=O)NCC(=O)O)C(C)C [Semaglutide]
Whole brain maximal uptake relative to the other IRAs [2]: three-fold less uptake
Acid precipitation (AP%) olfactory bulb [3]: 100.9 ± 0.5%
Acid precipitation (AP%) serum [3]: 86.9 ± 1.1%
Acid precipitation (AP%) whole brain [3]: 74.7 ± 17.7%
Rate of crossing the BBB after IV administration [1]: undetectable within an hour
Rate of whole brain uptake an hour after IV administration [1]: undetectable
Time for brain detection after systemic administration [1]: took hours for brain detection

albiglutide: incretin receptor agonist, cited IV BBB data
Rate of crossing the BBB after IV administration [1]: quickly

glucagon-like peptide-1 [GLP-1]
Half-life in plasma [4]: less than 2 min

tirzepatide: incretin receptor agonist, cited IV BBB data
Rate of crossing the BBB after IV administration [1]: undetectable within an hour

liraglutide: incretin receptor agonist, cited BBB data
Time for brain detection after systemic administration [1]: took hours for brain detection
